Assay results published in article PMC4980298 (Molecular microbiology, 2016).

Molecular target: T1, FimL fused to T18 or T25 (BACTH) (P. aeruginosa PAO1, UniProt Q9I2S3 1-562)
T1 sequence: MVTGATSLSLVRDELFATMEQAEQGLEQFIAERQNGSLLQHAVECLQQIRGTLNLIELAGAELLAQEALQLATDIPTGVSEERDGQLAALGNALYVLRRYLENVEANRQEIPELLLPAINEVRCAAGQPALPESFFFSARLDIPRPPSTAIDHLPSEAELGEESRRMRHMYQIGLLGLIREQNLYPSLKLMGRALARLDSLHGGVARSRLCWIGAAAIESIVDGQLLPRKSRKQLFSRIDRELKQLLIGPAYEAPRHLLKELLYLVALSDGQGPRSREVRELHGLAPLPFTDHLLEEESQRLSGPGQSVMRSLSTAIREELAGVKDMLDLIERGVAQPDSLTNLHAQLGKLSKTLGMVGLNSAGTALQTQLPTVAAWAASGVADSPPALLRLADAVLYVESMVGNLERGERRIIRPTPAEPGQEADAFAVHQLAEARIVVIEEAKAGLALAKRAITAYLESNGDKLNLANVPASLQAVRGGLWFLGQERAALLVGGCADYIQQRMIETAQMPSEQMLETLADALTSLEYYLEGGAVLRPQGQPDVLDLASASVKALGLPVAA
Assay: two-hybrid

B1: PilG fused to T18 or T25 (BACTH) (natural protein)
chain: MEQQSDGLKVMVIDDSKTIRRTAETLLKKVGCDVITAIDGFDALAKIADTHPNIIFVDIMMPRLDGYQTCALIKNNSAFKSTPVIMLSSKDGLFDKAKGRIVGSDQYLTKPFSKEELLGAIKAHVPSFTPVDAVS
- fold increase in β-galactosidase activity over controls: ~20 fold
